Measured values as given in article PMC10200060, “Inhibition of DAMP actions in the tumoral microenvironment using lactoferrin-glycyrrhizin conjugate for glioblastoma therapy” (Biomaterials Research, 2023).

Key:
HMGB1 [1] = experiment: HUVEC co-cultured with U87MG: HMGB1 ELISA; format: cell-based, human; conditions: HUVEC/U87MG co-culture, 100 μM GL equivalent, 24 h (control 217.8 ± 5.9)
Procedure: To evaluate the inhibitory effect of Lf-GL on neovascularization in the tumor microenvironment in vitro, U87MG cells were seeded in the Transwell® insert chambers that were 6.5 mm in diameter and had 0.4 μm pore sizes (seeding density: 2.5 × 10^4 cells per well, Corning). HUVECs were seeded in the Transwell basal chamber (seeding density: 5.0 × 10^4 cells per well). GL, Lf, or Lf-GL (100 × 10^–6 M of GL equivalent concentration) were added to the insert chamber, and cells were incubated for 24 h. CCK-8 assay and HMGB1 ELISA were conducted at the basal chamber.

rat aortic rings = experiment: Aorta ring assay (ex vivo); conditions: VEGF-conditioned medium, GL equivalent 200 µM, 14 days
Procedure: An aorta ring assay was conducted to confirm the anti-angiogenesis effect of Lf-GL ex vivo. A 48-well plate was coated with of Matrigel® (100 μL) and was incubated for 30 min or more in 37℃ incubators. In the meantime, thoracic aortas of 7-week-old male SD rats were excised. Then, the fat layer and outer membrane were removed, and rings approximately 1 mm in length were prepared. The prepared aortic rings were seeded on a coated Matrigel® of 48-well plate and were covered with Matrigel®. (100 μL) Subsequently, the aortic ring was treated with a control (with or without 25 ng mL^−1 of VEGF) or different concentrations of Lf-GL complex. Medium was changed once every two days. Fourteen days after treatment, optical images of sprouting microvessels were obtained using microscopy magnification (× 40 or × 100). Sprouting microvessel area was quantified using Image J and Sigma Plot.
Fig. S14. Significant inhibitory effect of Lf-GL in aortic ring angiogenesis. Optical images of vessel regression in aortic ring with Lf-GL treatment. Aortic ring assay was carried out in 48-well plate coated with Matrigel. VEGF-non treated control represents that aortic ring incubated with normal medium. VEGF-treated control represents that aortic ring incubated with 25 ng mL^-1 VEGF-conditioned medium. […]

HMGB1 [2] = experiment: Immunofluorescence staining of HMGB1 in GBM tissue; format: in vivo, Balb/c nude mice; conditions: GBM mice, daily i.v. GL equivalent 50 mg kg^−1, 14 days (control 15.3 ± 1.7)
From the text: (§1) After two weeks, mice were sacrificed, and the brains were harvested and fixed with paraformaldehyde (4%). Then, tissue processing was automatically conducted using a Leica TP1020 semi-enclosed Benchtop Tissue Processor (Leica Biosystems, Wetzlar, Hesse, Germany), followed by embedding in paraffin blocks. Paraffin blocks were sliced into 5 μm thick slices using a Leica RM2145 Microtome (Leica Biosystems). Nissl staining was used to stain brain tissue slides with pre-warmed 0.1% Cresyl Violet Stain Solution (Abcam). TUNEL assays were conducted following the manufacturer’s instructions. For immunofluorescence staining; anti-HMGB1 antibody (Abcam), anti-Ki67 antibody (Abcam), anti-CD31 antibody (Abcam), and anti-VEGF antibody (Abcam) were used as primary antibodies, and goat anti-rabbit IgG-H&L Alexa Fluor 488 and goat anti-rabbit IgG H&L Alexa Fluor 647 were used as secondary antibodies, followed by DAPI mounting.

[3] = mouse, in vivo, iv
[4] = tested on: orthotopic GBM (U87MG) mice model; experiment: TUNEL assay of GBM tissue; format: in vivo, Balb/c nude mice; conditions: daily i.v., 14 days (control 28.5 ± 4.8)
From the text: as §1

[5] = GBM targeted-GL by HPLC in brain homogenate; format: in vivo, orthotopic GBM model mice
Procedure: Orthotopic GBM mice model mice were used for quantification of GBM targeting efficacy. The brain tissue was homogenized in deionized water at a 33.3 w/v (%) using a FastPrep-24 5G (MP biomedical, South Korea). The GL were added to pooled brain homogenate to obtain seven-point calibration curves with a range of 10–1000 ng mL^−1. Then, homogenate (50 μL) was mixed with methanol (100 μL). […] Thereafter, supernatants (100 μL) were mixed with mobile phase solution (900 μL), then filtered with a 0.22 μm syringe filter. Samples were collected in a 2 mL HPLC vial (Screw top vial, Waters, USA) and analyzed by HPLC at 254 nm. […] Mice were sacrificed and brain tissues were collected 10 min after the GL and Lf-GL injection. The samples for quantification were also conducted using the same process as GL standard preparation.

[6] = tested on: orthotopic GBM (U87MG) mice model; experiment: Survival in orthotopic GBM mouse model; format: in vivo, Balb/c nude mice; conditions: i.v. GL equivalent 50 mg kg^−1 (Lf 5 mg kg^−1)
Procedure: To establish the orthotopic GBM mice model, GBM cells (U87MG, inoculation density: 1.0 × 10^6 cells per 10 μL) were stereotactically injected into the right striatum of Balb/c nude mice. Then, mice were randomly divided into four groups (n = 5): control, GL, Lf, and Lf-GL treated group. […] After four weeks, mice were sacrificed, and organs were harvested and fixed with 4% paraformaldehyde for further analysis.

[7] = In vivo pharmacokinetics study; conditions: mice, i.v.
U87MG spheroid = experiment: GBM spheroid growth inhibition; format: cell-based, human; conditions: GL equivalent 50 µM, day 6 (control 294%)
Procedure: Fig. S8. GBM spheroid growth inhibition of Lf-GL. To form U87MG spheroid, cells were seeded at density of 1X10^5 cells in concave mold (StemFIT 3D; MICROFIT, Korea). After spheroids were formed, they were transferred to 24-well plate coated with 2% agarose gel. The constructed spheroids were treated with conditioned medium at 2 days interval after a washing step with PBS. (a) Morphology of U87MG spheroid treated with Lf-GL of GL equivalent concentration of 50 µM on day 0, 2, 4 and 6, respectively. Scale bar: 200 µm (b) GBM spheroids time-related volume after treated with Lf-GL of GL equivalent concentration of 50 µM. Data were expressed as mean ± S.E.M (n=9). **P <0.01 versus Control.

[8] = GL equivalent 50 mg kg^−1, plasma

B1: Lf-GL: lactoferrin-glycyrrhizin conjugate with ligation ratio Lf:GL 1:10, used in further experiments (conjugate, UniProt P24627 20-708, looked up)
Lactotransferrin: APRKNVRWCTISQPEWFKCRRWQWRMKKLGAPSITCVRRAFALECIRAIAEKKADAVTLDGGMVFEAGRDPYKLRPVAAEIYGTKESPQTHYYAVAVVKKGSNFQLDQLQGRKSCHTGLGRSAGWIIPMGILRPYLSWTESLEPLQGAVAKFFSASCVPCIDRQAYPNLCQLCKGEGENQCACSSREPYFGYSGAFKCLQDGAGDVAFVKETTVFENLPEKADRDQYELLCLNNSRAPVDAFKECHLAQVPSHAVVARSVDGKEDLIWKLLSKAQEKFGKNKSRSFQLFGSPPGQRDLLFKDSALGFLRIPSKVDSALYLGSRYLTTLKNLRETAEEVKARYTRVVWCAVGPEEQKKCQQWSQQSGQNVTCATASTTDDCIVLVLKGEADALNLDGGYIYTAGKCGLVPVLAENRKSSKHSSLDCVLRPTEGYLAVAVVKKANEGLTWNSLKDKKSCHTAVDRTAGWNIPMGLIVNQTGSCAFDEFFSQSCAPGADPKSRLCALCAGDDQGLDKCVPNSKEKYYGYTGAFRCLAEDVGDVAFVKNDTVWENTNGESTADWAKNLNREDFRLLCLDGTRKPVTEAQSCHLAVAPNHAVVSRSDRAAHVKQVLLHQQALFGKNGKNCPDKFCLFKSETKNLLFNDNTECLAKLGGRPTYEEYLGTEYVTAIANLKKCSTSPLLEACAFLTR
modifications: glycyrrhizin conjugate
- HMGB1 level in medium (HMGB1 [1]): 176.1 ± 4.9 ng/mL
- Decrease of sprouted area of the micro-vessel (rat aortic rings): 80.2 ± 4.5%
- Mean fluorescence intensity (MFI) of HMGB1 (HMGB1 [2]): 1.7 ± 1.0
- Time after administration until cleared from / remaining in circulation [3]: 720 min
- T1/2, elimination half-life ([3]; 50 mg/kg): 5.3 ± 0.4 min
- TUNEL MFI [4]: 9.1 ± 0.9
- Accumulated amount higher than GL without Lf conjugation ([5]; brain/GBM accumulation): twofold
- GL concentration detected in brain homogenate ([5]; orthotopic GBM mice, i.v. GL equivalent 50 mg kg^−1, 10 min after injection): 19.3 ± 1.6 µg/mL
- Mice survived up to 28 days [6]: 87.5%
- Additional days of survival versus PBS control ([6]; 28 days): 5 days
- Increase of AUClast versus free GL ([7]; GL equivalent 50 mg kg^−1): tenfold
- Cmax [7, 8]: 270.98 ± 130.92 μg/㎖
- MRT, mean retention time [7, 8]: 3.4 ± 0.8 min
- Tmax [7, 8]: 1 min
- Spheroid volume increase at day 6 compared to day 0 (U87MG spheroid): 156%
